Test results taken from the array DNA melting data of Ke et al..

Test: melting temperature; melt of duplexes
Conditions: sodium 0.0675 M; strand 1 µM
“CGACGTGCTCAATGTGCTG+CAGCACATGCCGCACGTCG ((((((((...((((((((+))))))))...))))))))” showed a Tm of 49 °C. For “CGACGTGCAGTATGTGCTG+CAGCACATCCTGCACGTCG ((((((((((.((((((((+)))))))).))))))))))”, the Tm was 56.3 °C. “CGACGTGCCGAATGTGCTG+CAGCACATTCGGCACGTCG (((((((((((((((((((+)))))))))))))))))))” showed a Tm of 66.5 °C. For “CGACGTGCGTGATGTGCTG+CAGCACATGCAGCACGTCG ((((((((...((((((((+))))))))...))))))))”, the Tm was 54.1 °C. For “CGACGTGCTATATGTGCTG+CAGCACATGGCGCACGTCG ((((((((...((((((((+))))))))...))))))))”, the Tm was 48.5 °C. “CGACGTGCCATATGTGCTG+CAGCACATACAGCACGTCG ((((((((..(((((((((+)))))))))..))))))))” showed a Tm of 49.9 °C. Substance “CGACGTGCATGATGTGCTG+CAGCACATGATGCACGTCG ((((((((((.((((((((+)))))))).))))))))))” has a Tm of 56.8 °C. Work on “CGACGTGCTGCATGTGCTG+CAGCACATGGCGCACGTCG ((((((((..(((((((((+)))))))))..))))))))” yielded a Tm of 55.3 °C. In the case of “CGACGTGCAGAATGTGCTG+CAGCACATGCTGCACGTCG ((((((((((.((((((((+)))))))).))))))))))”, the Tm is reported as 58.6 °C. Substance “CGACGTGCTAAATGTGCTG+CAGCACATGCTGCACGTCG ((((((((...((((((((+))))))))...))))))))” has a Tm of 50.1 °C. In the case of “CGACGTGCGCTATGTGCTG+CAGCACATCCCGCACGTCG (((((((((..((((((((+))))))))..)))))))))”, the Tm is reported as 52.1 °C. “CGACGTGCTGAATGTGCTG+CAGCACATGCAGCACGTCG ((((((((((.((((((((+)))))))).))))))))))” gave a Tm of 59.7 °C. In the case of “CGACGTGCCGCATGTGCTG+CAGCACATGCCGCACGTCG ((((((((.((((((((((+)))))))))).))))))))”, the Tm is reported as 58.9 °C. Substance “CGACGTGCAAAATGTGCTG+CAGCACATGTCGCACGTCG ((((((((.(.((((((((+)))))))).).))))))))” has a Tm of 53.3 °C. In the case of “CGACGTGCAGGATGTGCTG+CAGCACATGGGGCACGTCG ((((((((...((((((((+))))))))...))))))))”, the Tm is reported as 50.4 °C. In the case of “CGACGTGCACTATGTGCTG+CAGCACATCTGGCACGTCG ((((((((...((((((((+))))))))...))))))))”, the Tm is reported as 44.2 °C. In the case of “CGACGTGCACTATGTGCTG+CAGCACATGATGCACGTCG (((((((((..((((((((+))))))))..)))))))))”, the Tm is reported as 48.8 °C. In the case of “CGACGTGCCACATGTGCTG+CAGCACATGCAGCACGTCG ((((((((..(((((((((+)))))))))..))))))))”, the Tm is reported as 53.6 °C. Substance “CGACGTGCCCTATGTGCTG+CAGCACATCTAGCACGTCG ((((((((...((((((((+))))))))...))))))))” has a Tm of 48 °C. In the case of “CGACGTGCCATATGTGCTG+CAGCACATGAGGCACGTCG (((((((((..((((((((+))))))))..)))))))))”, the Tm is reported as 56.2 °C. “CGACGTGCTGGATGTGCTG+CAGCACATGCAGCACGTCG ((((((((((.((((((((+)))))))).))))))))))” showed a Tm of 61.3 °C. In the case of “CGACGTGCATGATGTGCTG+CAGCACATTTCGCACGTCG ((((((((...((((((((+))))))))...))))))))”, the Tm is reported as 48.7 °C. “CGACGTGCGAAATGTGCTG+CAGCACATAGGGCACGTCG ((((((((...((((((((+))))))))...))))))))” gave a Tm of 49.9 °C. With “CGACGTGCGCCATGTGCTG+CAGCACATGTAGCACGTCG ((((((((..(((((((((+)))))))))..))))))))” the Tm was 55.1 °C. For “CGACGTGCCCAATGTGCTG+CAGCACATGATGCACGTCG ((((((((...((((((((+))))))))...))))))))”, the Tm was 49.7 °C. “CGACGTGCAATATGTGCTG+CAGCACATCGCGCACGTCG ((((((((...((((((((+))))))))...))))))))” gave a Tm of 47.4 °C. “CGACGTGCTTCATGTGCTG+CAGCACATACTGCACGTCG ((((((((...((((((((+))))))))...))))))))” gave a Tm of 48.3 °C. For “CGACGTGCGGAATGTGCTG+CAGCACATCTTGCACGTCG ((((((((...((((((((+))))))))...))))))))”, the Tm was 50.8 °C. With “CGACGTGCGGGATGTGCTG+CAGCACATCCTGCACGTCG ((((((((.((((((((((+)))))))))).))))))))” the Tm was 62.6 °C. For “CGACGTGCCGGATGTGCTG+CAGCACATCAAGCACGTCG ((((((((..(((((((((+)))))))))..))))))))”, the Tm was 54.8 °C. Substance “CGACGTGCGGAATGTGCTG+CAGCACATTCTGCACGTCG ((((((((.((((((((((+)))))))))).))))))))” has a Tm of 61.1 °C. With “CGACGTGCATGATGTGCTG+CAGCACATTCGGCACGTCG ((((((((...((((((((+))))))))...))))))))” the Tm was 50.3 °C. For “CGACGTGCTTTATGTGCTG+CAGCACATAACGCACGTCG ((((((((.((((((((((+)))))))))).))))))))”, the Tm was 53.6 °C. Substance “CGACGTGCAGAATGTGCTG+CAGCACATGCCGCACGTCG ((((((((.(.((((((((+)))))))).).))))))))” has a Tm of 54.6 °C. Substance “CGACGTGCCAAATGTGCTG+CAGCACATGGGGCACGTCG (((((((((..((((((((+))))))))..)))))))))” has a Tm of 56.6 °C. “CGACGTGCATTATGTGCTG+CAGCACATATTGCACGTCG (((((((((.(((((((((+))))))))).)))))))))” showed a Tm of 54.5 °C. Work on “CGACGTGCCACATGTGCTG+CAGCACATTGGGCACGTCG (((((((((..((((((((+))))))))..)))))))))” yielded a Tm of 55 °C. “CGACGTGCTGTATGTGCTG+CAGCACATTTTGCACGTCG ((((((((...((((((((+))))))))...))))))))” showed a Tm of 49.2 °C. With “CGACGTGCGGGATGTGCTG+CAGCACATGTAGCACGTCG ((((((((...((((((((+))))))))...))))))))” the Tm was 53.7 °C. With “CGACGTGCACGATGTGCTG+CAGCACATTCTGCACGTCG (((((((((..((((((((+))))))))..)))))))))” the Tm was 49.2 °C. In the case of “CGACGTGCCCCATGTGCTG+CAGCACATAAAGCACGTCG ((((((((...((((((((+))))))))...))))))))”, the Tm is reported as 47.7 °C. For “CGACGTGCGCCATGTGCTG+CAGCACATACCGCACGTCG (((((((((..((((((((+))))))))..)))))))))”, the Tm was 51 °C. Substance “CGACGTGCTAGATGTGCTG+CAGCACATAACGCACGTCG ((((((((...((((((((+))))))))...))))))))” has a Tm of 49.9 °C. In the case of “CGACGTGCTGTATGTGCTG+CAGCACATATTGCACGTCG ((((((((..(((((((((+)))))))))..))))))))”, the Tm is reported as 52.7 °C. “CGACGTGCGATATGTGCTG+CAGCACATTGAGCACGTCG ((((((((...((((((((+))))))))...))))))))” gave a Tm of 57.2 °C. In the case of “CGACGTGCGTGATGTGCTG+CAGCACATTCTGCACGTCG ((((((((...((((((((+))))))))...))))))))”, the Tm is reported as 51.8 °C. With “CGACGTGCTTGATGTGCTG+CAGCACATCGCGCACGTCG ((((((((..(((((((((+)))))))))..))))))))” the Tm was 54.3 °C. “CGACGTGCCGGATGTGCTG+CAGCACATAGAGCACGTCG ((((((((...((((((((+))))))))...))))))))” gave a Tm of 50.2 °C. For “CGACGTGCAACATGTGCTG+CAGCACATGTCGCACGTCG ((((((((.((((((((((+)))))))))).))))))))”, the Tm was 57.8 °C. Substance “CGACGTGCGCGATGTGCTG+CAGCACATAAGGCACGTCG ((((((((...((((((((+))))))))...))))))))” has a Tm of 50 °C. Work on “CGACGTGCTTCATGTGCTG+CAGCACATGTCGCACGTCG ((((((((..(((((((((+)))))))))..))))))))” yielded a Tm of 52.2 °C. “CGACGTGCTAAATGTGCTG+CAGCACATCGGGCACGTCG ((((((((...((((((((+))))))))...))))))))” gave a Tm of 49.7 °C. “CGACGTGCAACATGTGCTG+CAGCACATTAAGCACGTCG ((((((((...((((((((+))))))))...))))))))” showed a Tm of 49.2 °C. Work on “CGACGTGCTCTATGTGCTG+CAGCACATAGGGCACGTCG ((((((((.((((((((((+)))))))))).))))))))” yielded a Tm of 58.4 °C. With “CGACGTGCCGTATGTGCTG+CAGCACATAATGCACGTCG ((((((((..(((((((((+)))))))))..))))))))” the Tm was 50.3 °C. In the case of “CGACGTGCTAAATGTGCTG+CAGCACATGATGCACGTCG ((((((((...((((((((+))))))))...))))))))”, the Tm is reported as 53.2 °C. “CGACGTGCAGTATGTGCTG+CAGCACATCGTGCACGTCG (((((((((..((((((((+))))))))..)))))))))” gave a Tm of 48.2 °C. Work on “CGACGTGCGTGATGTGCTG+CAGCACATGTAGCACGTCG ((((((((...((((((((+))))))))...))))))))” yielded a Tm of 53.3 °C. Work on “CGACGTGCAGTATGTGCTG+CAGCACATTCAGCACGTCG ((((((((.(.((((((((+)))))))).).))))))))” yielded a Tm of 51.1 °C. In the case of “CGACGTGCAGGATGTGCTG+CAGCACATGCAGCACGTCG ((((((((.(.((((((((+)))))))).).))))))))”, the Tm is reported as 55 °C. Work on “CGACGTGCATGATGTGCTG+CAGCACATTAGGCACGTCG ((((((((.(.((((((((+)))))))).).))))))))” yielded a Tm of 54 °C. “CGACGTGCTAAATGTGCTG+CAGCACATCGAGCACGTCG (((((((((..((((((((+))))))))..)))))))))” showed a Tm of 51.8 °C. Work on “CGACGTGCGCCATGTGCTG+CAGCACATTTGGCACGTCG ((((((((...((((((((+))))))))...))))))))” yielded a Tm of 47.4 °C. “CGACGTGCATTATGTGCTG+CAGCACATTTCGCACGTCG ((((((((...((((((((+))))))))...))))))))” gave a Tm of 48.3 °C. For “CGACGTGCTGTATGTGCTG+CAGCACATGATGCACGTCG ((((((((...((((((((+))))))))...))))))))”, the Tm was 51.3 °C. For “CGACGTGCAGAATGTGCTG+CAGCACATCACGCACGTCG ((((((((...((((((((+))))))))...))))))))”, the Tm was 50.1 °C. With “CGACGTGCTCCATGTGCTG+CAGCACATTTCGCACGTCG ((((((((...((((((((+))))))))...))))))))” the Tm was 45.7 °C. With “CGACGTGCCGCATGTGCTG+CAGCACATCTGGCACGTCG (((((((((..((((((((+))))))))..)))))))))” the Tm was 54.2 °C. In the case of “CGACGTGCTACATGTGCTG+CAGCACATCGAGCACGTCG (((((((((..((((((((+))))))))..)))))))))”, the Tm is reported as 51.6 °C. With “CGACGTGCATAATGTGCTG+CAGCACATCGCGCACGTCG ((((((((...((((((((+))))))))...))))))))” the Tm was 46.9 °C. For “CGACGTGCAGAATGTGCTG+CAGCACATAATGCACGTCG (((((((((..((((((((+))))))))..)))))))))”, the Tm was 54.2 °C. Work on “CGACGTGCGCGATGTGCTG+CAGCACATGATGCACGTCG ((((((((...((((((((+))))))))...))))))))” yielded a Tm of 51 °C.
